Data published in patent publication US20220380473A1, “ANTI-GAL3 ANTIBODIES AND USES THEREOF” (TrueBinding, Inc., priority 2019, published 2022).

Tests used:
4T1 cells = test: 4T1 orthotopic tumor induced lung metastasis model; type: in vivo, mouse; settings: 10 mg/Kg i.p., day 30, vs isotype control
Method: On the day of tumor implantation, 4T1 cells were collected, washed and resuspended in PBS. Mice were anesthetized by inhalation anesthetic (3 to 5% Isoflurane in medical grade air). 2×10^5 cells in 0.1 mL PBS were subcutaneously injected into the mammary gland by using a syringe with a 25-ga needle. Mice were randomly assigned into two groups (n=10). […] The tumor volumes and body weights were monitored twice per week. On day 30, the mice were humanely sacrificed and lung tissues were inflated with 30% sucrose, removed and fixed in Bouin's solution (Sigma-Aldrich). […] Results were expressed as mean±SEM.

hGal3 peptides = test: ELISA of antibody binding to hGal3 peptides (Example 14); set-up: species or system human; settings: 0.1 ug/ml antibody
Method: A library of 20 amino acid peptides each representing a certain regions of hGal3 (SEQ ID NO: 1) was produced. At least 2 ug/ml of the produced hGal3 peptide: peptide 1 (SEQ ID NO: 3), 5 (SEQ ID NO: 7), 6 (SEQ ID NO: 8), 8 (SEQ ID NO: 10), or 23 (SEQ ID NO: 25) in 50 ul of PBS was added to the wells of a 96-well ELISA plate (Thermo Fisher, 44-2404-21). As a positive control, 0.1 ug/ml of full-length human Galectin-3 protein (Acro Biosystems, GA3-H5129) in 100 ul of PBS was added to the wells of the ELISA plate. After incubating the plate at 4° C. overnight, the plate was washed three times with 300 ul of PBST per well. The plate was then blocked for an hour with 200 ul of 2% BSA in PBST per well at room temperature with gentle rocking. Thereafter, the 2% BSA in PBST was removed and 100 ul of 0.1 ug/ml of antibody in 2% BSA in PBST was added to the wells (FIG. 17A-B). As for negative control group, the antibodies were applied without the hGal3 peptides or the hGal3 protein.
The plate was incubated for an hour at room temperature with gentle rocking and then washed three times with 300 μl of PBST per well. […] The reaction was stopped with 50 ul of 1M HCl (VWR) per well and the plate was read using a plate reader (Molecular Devices) at absorbance of 450 nm.

[1] = test system: α-smooth muscle actin (SMA) and fibronectin; test: UUO mouse kidney fibrosis, western blot of fibrosis markers (Example 19); type: in vivo; settings: 10 mg/kg i.p., 14 day treatment, vs IgG2b control
Method: Unilateral […] obstruction (UUO) mouse model was created with 8-week old male C57BL/6 mice. The animals were randomly assigned into three groups (n=5); sham, mouse IgG2b control, and IMT001. […] On day 0, surgery was performed to ligate the left ureter in each animal. Following the surgery, the animals were administrated intraperitoneally either 10 mg/kg of mIgG2b (BioXCell) or IMT001 on day 1, 5 and 10. The animals in the sham group were left untreated. On day 4, 8 and 15 the animals were humanely sacrificed and left kidney tissues were surgically removed and snap frozen for western blot analysis.
30 mg snap frozen kidney tissue from 14 day treatment UUO group was homogenized in 500 μl of RIPA buffer (Thermo Scientific). The homogenate was left on ice for 10 minutes and then centrifuged at 12000 rpm for 10 min at 4° C. in 1.5 mL Eppendorf tubes. The supernatant containing protein was collected and was quantified by A280 absorbance with a Nanodrop (ThermoFisher). Protein samples were boiled in 4× sample Buffer containing β-mercaptoethanol (Bio-Rad) for 10 min. […] The membranes were washed three times with PBST and protein bands were detected by enhanced chemiluminescence using standard ECL detection methods as recommended by the manufacturer (Bio-Rad) and developed. […]

[2] = test system: MCD mouse model of liver fibrosis; test: Methionine-choline deficient (MCD) mouse model of liver fibrosis; type: in vivo
Description: To further investigate the ability of GAL3-TIM3 blocking antibodies to influence liver fibrosis, the methionine-choline deficient (MCD) mouse model of liver fibrosis was employed. Briefly, Six-week-old male C57Bl/6 mice (Jackson Laboratory) were fed either a normal diet (Envigo, #2020X; n=5 mice); or MCD diet (Fisher Scientific, #MP296043910, n=25) for 8 weeks and continuously through the remainder of the study. Mice were divided into three groups (7 mice each) and randomized based on ALT score. Group 1 and 2 were treated mouse anti-mIgG2aLala isotype control (mISO, 10 mg/kg) or mouse anti-Gal3 antibody (mIMT001, 10 mg/kg) twice a week of IP injection for 4 weeks, at which time animals were sacrificed and liver specimens were collected, fixed in 4% paraformaldehyde (Electron Microscopy Sciences, Cat #15710S) for 24 hours, transferred to 70% EtOH for 72 hours, and samples were subsequently embedded in paraffin. […] Brightfield images were acquired under a Revolve microscope (Discover Echo, Inc.).
To assess fibrosis in these specimens, tissue sections were evaluated for the deposition of fibrotic collagen deposits by picosirius red staining. Briefly, after deparaffinization, liver specimens from isotype control- or IMT001-treated MCD mice were rehydrated in serial ethanol baths, sections were stained in 0.01% Fast green FCF Solution (Cat #1.04022.0025 MilliporeSigma) in saturated picric aqueous solution for 15 minutes at room temperature, followed by 1 h incubation at room temperature in 0.04% Fast green FCF/0.1% Sirius red in saturated picric aqueous solution, prior to their dehydration, clearing and mounting. Images were quantitated using ImageJ software (Rasband, W. S., ImageJ, U. S. National Institutes of Health, Bethesda, Md., USA, world wide web.imagej.nih.gov/ij/)

[3] = 10 mg/kg twice a week IP for 4 weeks

B1: IMT001: anti-Gal3 monoclonal antibody (Immutics); printed as mIMT001 (IMT001), murine (antibody, V domains shown)
VH: QIQLVQSGPELKKPGETVKISCKASGYTFTNYGMNWVKQAPGKGLKWMGWINTNTGEPTYVEEFKGRFAFSLETSASTAYLQINNLKNEDTATYFCAPYDNFFAYWGQGTLVTVSA
VL: DIVITQDELSNPVTSGESVSISCRSSKSLLYKDGKTYLNWFLQRPGQSPQLLIYLMSTHASGVSDRFSGSGSGTDFTLEISRVKAEDVGVYYCQQLVDYPLTFGAGTKLELK
4T1 cells
  lung metastatic number: significant reduction of lung metastatic number
hGal3 peptides
  hGal3 peptides bound: 5 (SEQ ID NO: 7), 6 (SEQ ID NO: 8), and 8 (SEQ ID NO: 10)
[1]
  expression of fibrotic markers a-SMA and fibronectin in kidney: reduced expression of both fibrotic markers
[2]; [3]
  apoptotic ballooning cells, image-based quantification: 0.98
  infiltrating lobular immune cells, image-based quantification: 0.73
  steatosis, image-based quantification: 1
[2]; integrated score
  NAS score: 2.72
[2]; liver sections
  picosirius red staining, % of the tissue area: 1.25%
[2]; vs control-treated
  reduction of ballooning: 27%
  reduction of lobular immune cells: 59%
  reduction of steatosis: 15%
[2]; vs isotype control
  reduction of NAS score: 43%
  reduction of picosirius red staining: 71%
